Publication PMC2192062

Target: H-2Kb, peptide-free ('empty') MHC class I molecule on RMA-S cells (mouse | mouse (endogenous in RMA-S))
Test: MHC stabilization assay

Substance: SIINFEKL, CTL epitope derived from ovalbumin (peptide)
- SI (stabilization index): 450 to 500
